In article PMC3324464, “The GPI Anchor Signal Sequence Dictates the Folding and Functionality of the Als5 Adhesin from Candida albicans” (PLoS ONE, 2012):

How the values were obtained:
human collagen type IV = experiment: Adhesion assay to immobilised collagen type IV; format: binding; conditions: 0.09 mg/ml protein, 37°C 1 hour, anti-GST/HRP, TMB OD650nm; mean of 3 independent experiments in duplicates
Experimental: Freshly purified GST-Als5 and GST-Als5-SS were checked for their ability to bind to human collagen type IV, following a slightly modified method to that reported. Briefly, a 96-well flat bottom plate was coated with different amounts of collagen type IV and incubated overnight at 4°C. The plate was then washed thrice with PBS and twice with elution buffer. […] The wells were blocked for 1 hour with 5% skimmed milk in PBS and then washed 5 times with wash buffer (1% skimmed milk, 0.025% Tween-20 in PBS). Thereafter, 200 µl/well of primary anti-GST antibody (diluted 1∶1,000) was added. After incubation at 37°C for 1 hour, the wells were washed five times with wash buffer and incubated at 37°C with HRP-conjugated secondary antibody (200 µl/well; diluted 1∶20,000) for 1 hour. The wells were rinsed five times with wash buffer, 100 µl of freshly prepared tetramethylbenzidine solution was added to each well and incubated at 37°C for 1 hour. OD650nm was monitored on a plate reader (Spectramax M2). […]
Figure 3 Adhesion of Als5 to collagen type IV involves recognition of carbohydrate residues on collagen type IV but is not solely determined by it. […] Adhesion of the proteins to collagen type IV was correlated to the absorbance at 650 nm observed by the oxidation of TMB, the substrate of HRP. […] Adherence to collagen type IV was detected as already described. […]

[1] = test system: collagen type IV treated with N-Glycosidase F; experiment: Adhesion to N-glycosidase F treated collagen type IV; format: binding, human; conditions: 0.5 U N-glycosidase F, 3 hours; data not shown
Experimental: Figure 3 Adhesion of Als5 to collagen type IV involves recognition of carbohydrate residues on collagen type IV but is not solely determined by it. (A) Adhesion of GST-Als5, GST-Als5-SS to collagen type IV. Different amounts of collagen type IV, as shown in the figure, were immobilized in 96-well flat bottomed ELISA plates and incubated with the proteins (0.09 mg/ml) of interest at 37 °C for 1 hour. The adhesion assay was carried out as described in Experimental Procedures. Adhesion of the proteins to collagen type IV was correlated to the absorbance at 650 nm observed by the oxidation of TMB, the substrate of HRP. […] Buffer controls (OD 650nm of 0.126 ± 0.003), corresponding to no immobilized collagen, have been subtracted in all cases. […] The data presented is mean of 3 independent experiments done in duplicates. […] (B) Treatment of collagen type IV with N-Glycosidase F results in decrease in adherence of GST-Als5. […] Adherence to collagen type IV was detected as already described. […]
Supplementary file pone.0035305.s005.tif: Figure S5 Treatment of collagen type IV with N-Glycosidase F results in decrease in adherence of GST-Als5. […] GST-Als5 was incubated before the adherence was detected by using primary anti-GST antibody and anti-rabbit HRP-conjugated secondary antibody and is represented in this figure by the Absorbance at 650nm observed upon oxidation of the specific substrate of HRP. […]

B1: GST-Als5: GST fusion of full length Als5 minus the GPI anchor attachment signal sequence, expressed in E. coli (protein)
chain: ITGIFNSIDSLTWSNAGNYAFKGPGYPTWNAVLGWSLDGTSANPGDTFILNMPCVFKFTASQKSVDLTADGVKYATCQFYSGEEFTTFSSLKCTVNNNLRSSIKALGTVTLPIAFNVGGTGSSVDLEDSKCFTAGTNTVTFNDGSKKLSIAVNFEKSTVDQSGYLTTSRFMPSLNKIATLYVAPQCENGYTSGTMGFSTSYGDVAIDCSNVHIGISKGVNDWNHPVTSESFSYTKSCSSFGISITYQNVPAGYRPFIDAYISPSDNNQYQLSYKNDYTCVDDYWQHAPFTLKWTGYKNSDAGSNGIVIVATTRTVTDSTTAVTTLPFNPSVDKTKTIEILQPIPTTTITTSYVGVTTSYSTKTAPIGETATVIVDVPYHTTTTVTSEWTGTITTTTTRTNPTDSIDTVVVQVPLPNPTTTTTQFWSESFTSTTTITNSLKGTDSVIVREPHNPTVTTTEFWSESYATTETITNGPEGTDSVIVREPHNPTVTTTEFWSESYATTETVTNKPEGTDSVIIKEPHNPTVTTTEFWSESYATTETITTGPLGTDSIVIHDPLEESSSTTAIESSDSNISSSAQESSSSVEQSSSIVGLSSSSDIPLSSDMPSSSSTGLTSSESSTVSSYDSDSSSSSELSTFSSSESYSSSISDTTNFWDSSSSDLESTSITWSSSIDAQSSQSVQSVSNSISTSQETTSSSGEESNTSVTDILVSSDASSILNSDISSYYPSSTISLSDDFPHTIAGEPDSRSSSSIASTVEISSDLVSLTSDPTSSFDSSSSLNSDSSSSPFSDESDISASSSFSTLVAPSFSLSSSSSLSLTYPHYVNSTTYHASESESSSVASPSMASESANDDTHTLSESTDTTSSIGTDSSTVTFCRRDNGDGCIVTGMPSSSIDSEQTSDVTTTSSFVASSTPTSAEQSITDNPNIDSSQTSASSSTKSSVSVSDTVVNSISLSETSTLSSDDSTSSDTSISSTTNSDTGNINAGSSHTSTASIKESSIQKTGVMLSSSYLSTKLSSTSDITTELITTELITTELTTIEDNEPNTFTSTPSSHSEIFSSDNSVLSKQVDRESTIKTSPTTDVTTVSSLSVHSTEASTATLGENSFSNVASTPSNIATSLRSTSSSSNHATESSGTVKSEASAEAIPSPPTSTDNRLSYSTEEAKGITYANSGSTNNLITESQVAAPTDSTSVLIENPVVTSTFDDNSSAAVDQPSKTKSIEESIMNPDSTNETNNGFIATLSQAQVPNSLIHSESISTTMAKTTDASINGDSAASNSQPTTLIQQVATSSYNQPLITTYAGSSS
modifications: left off: GST, N-terminal, kept
- adhesion to collagen type IV (in words) (human collagen type IV): greater adherence to collagen type IV as compared to GST-Als5-SS
- effect of longer deglycosylation on adhesion (in words) [1]: did not further reduce the adhesion
